Columns and labels:
EL-4 tumour cells = experiment: EL-4 lymphoma tumour growth in mice fed experimental diets; assay type: in vivo, C57BL/6 mice
Source text: Mice were challenged subcutaneously with 2×10^5 EL-4 tumour cells two weeks after being placed on the diets. Tumour size as measured by two perpendicular diameters (in centimetres) was monitored until day 91, or until tumours reached 1 cm in diameter. Each point represents the mean tumour size with 95% confidence intervals for either 6 mice, or the number of mice indicated.
Groups of six mice were fed a control AIN-93G diet, diets containing either 28 g Lf+ or 120 g of milk fat (AMF) per 2.4 Kg of diet, or a diet containing a combination of both Lf and milk fat. Day 0 refers to the day the mice were placed on their diets. After 2 weeks on the diets, 2×10^5 EL-4 cells were injected into the flanks of mice. Tumour size as measured by two perpendicular diameters (in centimetres) was monitored until day 56. Each point represents the mean tumour size with 95% confidence intervals for either 6 mice, or the number of mice indicated.
Mice were challenged subcutaneously with EL-4 tumour cells two weeks after being placed on the diets. Tumour size was again measured by two perpendicular diameters (in centimetres).

EL-4 target cells = experiment: Anti-tumour cytolytic activity of splenocytes from diet-fed mice; assay type: in vivo; conditions: day 56
Experimental: Splenocytes were harvested following tumour cell injection on days specified. They were incubated at 37° C. with EL-4 target cells in graded E:T ratios in 96-well roundbottom plates. After a 4-hour incubation, 50 μl of supernatant was collected, and lysis was measured using the Cyto Tox 96 Assay Kit (Promega, Madison, Wis., USA). Background controls for non-specific target and effector cell lysis were included. After background subtraction, percentage of cell lysis was calculated using the formula: 100×(experimental spontaneous effector-spontaneous target/maximum target-spontaneous target).
Splenocytes were harvested from the mice described in Example 4 at day 56 and tested for their cytolytic activity against EL-4 target cells. […] The anti-tumour cytolytic activity was further increased by 86% (P<0.001) for mice fed the combination of Lf+ and milk fat compared to controls.

EL-4 tumours [1] = experiment: Tumour apoptosis (TUNEL / annexin-V-fluos) in EL-4 tumour sections; assay type: in vivo, mice; conditions: day 56
Experimental: Tumours were excised and immediately frozen in dry ice, and stored at −70° C. for later in situ detection of apoptotic cells in tumours. Frozen serial sections of 6-μm thickness were fixed with paraformaldehyde solution (4% in PBS, pH 7.4), and permeabilized with a solution containing 0.1% Triton X-100 and 0.1% sodium citrate. They were incubated with 20 μl TUNEL reagent (In Situ apoptosis detection kit from Boehringer Mannheim, Germany) for 60 min at 37° C., and examined by fluorescence microscopy. Adjacent sections were counter-stained with haematoxylin to count the total number of cells, or the number of apoptotic cells in ten randomly selected fields (magnification of ×40). The apototic index (AI) was calculated as the number of apoptotic cells×100/total number of nucleated cells. For detection of apoptotic cells in vitro, the numbers of apoptotic and necrotic tumour cells were measured by staining with annexin-V-fluos, TUNEL, and trypan blue. For measurement of gut apoptosis, jejunal sections were stained by the TUNEL method using a DeadEnd™ Fluorometric TUNEL System (Promega, Madison, Wis., USA). Apoptotic cells in 10 randomly selected cypts were counted, and the data expressed as apoptotic bodies per crypt. […]

EL-4 tumours [2] = experiment: Tumour vascularity and blood flow (CD31, CD105, DiO7) in EL-4 tumours; assay type: in vivo, mice; conditions: day 56
Experimental: To determine tumour vascularity, 10-μm frozen tumour sections were fixed with acetone, rinsed with PBS, blocked with 2% BSA for 2 hr, and incubated overnight with the anti-CD31 antibody MEC13.3, or an anti-CD105 mAb. They were subsequently incubated for 30 min with secondary antibodies using the VECTASTAIN Universal Quick kit (Vector Laboratories, Burlingame, Calif., USA); and developed with Sigma FAST DAB (3,3′-diaminobenzidine tetrahydrochloride) and CoCl2 enhancer tablets (Sigma), and counterstained with hematoxylin. Stained blood vessels were counted in five or six blindly chosen random fields (0.155 mm^2) at ×40 magnification, and the mean of the highest three counts was calculated. To visualize blood vessels open to flow, DiO7 (Molecular Probes, Eugene, Oreg.) was injected into the tail vein at a concentration of 1.0 mg/Kg one minute prior to collecting tissues, as described previously (Ding et al., 2001). The concentric circles method was also used to assess vascularity.
The effects of Lf+ and milk fat on tumour blood flow and vascularity were analyzed by staining of tumour sections prepared as described in Example 5 with anti-CD31 and anti-CD105 mAbs, and by perfusion of DiO7, and respectively. […] Stained blood vessels were counted from six mice in six blindly chosen random fields.

B1: Lf+: Iron-saturated bovine lactoferrin extract (100% saturated) prepared from natural bLf (protein, UniProt P24627 20-708, looked up)
Lactotransferrin: APRKNVRWCTISQPEWFKCRRWQWRMKKLGAPSITCVRRAFALECIRAIAEKKADAVTLDGGMVFEAGRDPYKLRPVAAEIYGTKESPQTHYYAVAVVKKGSNFQLDQLQGRKSCHTGLGRSAGWIIPMGILRPYLSWTESLEPLQGAVAKFFSASCVPCIDRQAYPNLCQLCKGEGENQCACSSREPYFGYSGAFKCLQDGAGDVAFVKETTVFENLPEKADRDQYELLCLNNSRAPVDAFKECHLAQVPSHAVVARSVDGKEDLIWKLLSKAQEKFGKNKSRSFQLFGSPPGQRDLLFKDSALGFLRIPSKVDSALYLGSRYLTTLKNLRETAEEVKARYTRVVWCAVGPEEQKKCQQWSQQSGQNVTCATASTTDDCIVLVLKGEADALNLDGGYIYTAGKCGLVPVLAENRKSSKHSSLDCVLRPTEGYLAVAVVKKANEGLTWNSLKDKKSCHTAVDRTAGWNIPMGLIVNQTGSCAFDEFFSQSCAPGADPKSRLCALCAGDDQGLDKCVPNSKEKYYGYTGAFRCLAEDVGDVAFVKNDTVWENTNGESTADWAKNLNREDFRLLCLDGTRKPVTEAQSCHLAVAPNHAVVSRSDRAAHVKQVLLHQQALFGKNGKNCPDKFCLFKSETKNLLFNDNTECLAKLGGRPTYEEYLGTEYVTAIANLKKCSTSPLLEACAFLTR
modifications: iron-saturated
notes: Iron-saturated bovine lactoferrin extract (100% saturated) prepared from natural bLf
- mice that completely rejected the tumour challenge (EL-4 tumour cells; 28 g Lf+ and/or 120 g milk fat per 2.4 Kg of diet, groups of six mice, until day 56): One of 6
- mice in which appearance of tumours was delayed by one week (EL-4 tumour cells; 28 g Lf+ or 120 g milk fat per 2.4 Kg of diet, groups of six mice): 5 of 6
- effect on tumour growth / tumorigenesis in individual mice (EL-4 tumour cells; groups of five mice, per 2.4 Kg of diet: 28 g Lf+, 120 g Phospholac 600, 1.2 g sphingomyelin): growth of two tumours being delayed by two weeks, and one by at least one week
- increase in anti-tumour cytolytic activity of splenocytes compared with control diet (EL-4 target cells): 66%
- increase in tumour apoptosis compared to control diet (EL-4 tumours [1]): 68%
- reduction in number of CD31+ vessels in tumours compared to control diet (EL-4 tumours [2]): 84%
- reduction in tumour blood flow compared to control diet (EL-4 tumours [2]): 84%

From patent US20110182943A1, “METHODS OF IMMUNE OR HEMATOLOGICAL ENHANCEMENT, INHIBITING TUMOUR FORMATION OR GROWTH, AND TREATING OR PREVENTING CANCER, CANCER SYMPTOMS, OR THE SYMPTOMS OF CANCER TREATMENTS” (FONTERRA CO-OPERATIVE GROUP LIMITED, priority 2007, published 2011)
